Reference: the supplement of paper PMC7125110
± gives the standard error. Variants at the floor of the assay were thinned out.

B1: glmS ribozyme (parent)
chain: AUAAAAGCGCCAGAACUACAGAAAUGUAGUUGACGAGGAGGAGGUUUAUCGAAUUUUCGGCGGAUGCCUCCAAA

Assays:
Settings in all cases: with glucosamine-6-phosphate
[1] = variants of: B1; assay: self-cleavage kobs at 40 uM GlcN6P; higher = faster cleavage; RNA array
Outline: (§1)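 Over ~14 h at 37 °C, tiles were imaged as glucosamine-6-phosphate (40 μM to 10 mM) in HEPES/KCl/Mg(OAc)2 buffer flowed across sequenced MiSeq chips. The chips carried barcoded ribozyme variants transcribed in situ by E. coli RNA polymerase and tracked with a hybridised Cy3 probe. After normalisation to baseline and to non-cleaving reference variants, one- or two-exponential decay fits of per-tile medians gave kobs. kcat and KM followed from weighted Michaelis–Menten fits across concentrations.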

[2] = variants of: B1; assay: self-cleavage kobs at 160 uM GlcN6P; higher = faster cleavage; RNA array
Outline: as §1

[3] = variants of: B1; assay: self-cleavage kobs at 2500 uM GlcN6P; higher = faster cleavage; RNA array
Outline: as §1

[4] = variants of: B1; assay: self-cleavage kobs at 10000 uM GlcN6P; higher = faster cleavage; RNA array
Outline: as §1

[5] = variants of: B1; assay: self-cleavage kobs at 640 uM GlcN6P; higher = faster cleavage; RNA array
Outline: as §1

Variant	self-cleavage kobs at 40 uM GlcN6P [1]	self-cleavage kobs at 160 uM GlcN6P [2]	self-cleavage kobs at 2500 uM GlcN6P [3]	self-cleavage kobs at 10000 uM GlcN6P [4]	self-cleavage kobs at 640 uM GlcN6P [5]
AUAAAACCGCCAGAACUACAGAAAUGUAGUUGACGAGGAGGAGGUUUAACGAAUUUUCGGCGGAUGCCUCCAAA	< 1e-05 s⁻¹	< 1e-05 s⁻¹	< 1e-05 s⁻¹	< 1e-05 s⁻¹	–
AUAAAACCGCCAGAACUACAGAAAUGUAGUUGACGAGGAGGAGGUUGAUCGAAUUGUCUCCGGAUGCCUCCAAA	< 1e-05 s⁻¹	–	–	–	–
AUAAAAUCGCCAGAACUACAGAAAUGUAGUUGACGAGGAGGAGGUUUAUCGGAUUUUCGGCGGAUGCGUCCAAA	0.000127 ± 4.6e-05 s⁻¹	–	–	0.000484 ± 0.00022 s⁻¹	–
AUAAAAUCGCCAGAACUACAGAAAUGUAGUUGACGAGGAGGAGGUUUAUCGUAUUUUCGGCGGAUGCCUCCAAA	< 1e-05 s⁻¹	–	< 1e-05 s⁻¹	< 1e-05 s⁻¹	< 1e-05 s⁻¹
AUAAAACCGCCAGAACUACAGAAAUGUAGUUGACGAGGAGGAGGUUUAUCGAAUUGUCGGCGGAUGCCUCCAAA	< 1e-05 s⁻¹	< 1e-05 s⁻¹	< 1e-05 s⁻¹	< 1e-05 s⁻¹	< 1e-05 s⁻¹
AUAAAAUCGCCAGAACUACAGAAAUGUAGUUGACGAGGAGGGGGUUUAUCGAAUUUUCGGCGGAUGCCUCCAAA	< 1e-05 s⁻¹	< 1e-05 s⁻¹	< 1e-05 s⁻¹	< 1e-05 s⁻¹	< 1e-05 s⁻¹
AUAAAAUCGCCAGAACUACAGAAAUGUAGUUGACGAGGGGGAGGUUUAUCGAAUUUUCGGCGGAUGCCUCCAAA	< 1e-05 s⁻¹	< 1e-05 s⁻¹	< 1e-05 s⁻¹	< 1e-05 s⁻¹	< 1e-05 s⁻¹
AUAAAAUCGCCAGAACUACAGAAAUGUAGUUGACGAGGCGGAGGUUUAUCGAAUUUUCGGCGGAUGCCUCCAAA	< 1e-05 s⁻¹	< 1e-05 s⁻¹	–	< 1e-05 s⁻¹	< 1e-05 s⁻¹
AUAAAAUCGCCAGAACUACAGAAAUGUAGUUGACGAGGAGGUGCUUUAUCGAAUUUUCGGCGGAUGCCUCCAAA	< 1e-05 s⁻¹	–	–	< 1e-05 s⁻¹	–
AUAAAAUCGCCAGAACUACAGAAAUGUAGUUGGCGAGGAGGAGGUUUAUCGAAUAUUCGGCGGAUGCCUCCAAA	< 1e-05 s⁻¹	–	–	< 1e-05 s⁻¹	–
AUAAAAUCGCCUGAACUACAGAAAUGUAGUUGACGAGGAGGAGGUUUAUCGGAUGUUCGGCGGAUGCCUCCAAA	< 1e-05 s⁻¹	–	–	< 1e-05 s⁻¹	–
AUAAAACCGCCAGAACUACAGAAAUGUAGUUGACGAGGAGGAGGUUUAUCGAAAUUUCGGCGGAUGCCUCCAAA	< 1e-05 s⁻¹	–	–	< 1e-05 s⁻¹	< 1e-05 s⁻¹
AUAAAAUCGCCAGAACUACAGAAAUGUAGUUGUCGAGGAGGAGGUUUAUCGAAUUUUCGGCGGGUGCCUGCAAA	< 1e-05 s⁻¹	–	–	–	–
AUAAAAUCGCCGGAACUACAGAAAUGUAGUUGACGAGGAGGAGGUUUAUCGAAUUUUCGGCGGAUGCCUCCAAA	< 1e-05 s⁻¹	< 1e-05 s⁻¹	–	< 1e-05 s⁻¹	< 1e-05 s⁻¹
AUAAAAUCGCCAGAACUACAGAAAUGUAGUUGACGAGGAGGAGGUUUUUCGAAUUUUCGGCGGAUGCCUCCAAA	< 1e-05 s⁻¹	< 1e-05 s⁻¹	< 1e-05 s⁻¹	< 1e-05 s⁻¹	< 1e-05 s⁻¹
AUAAAAUCGCCAGAACUACAGAAAUGUAGUUGACGCGGAGGAGGUUUAUCGAAUUUUCUGCGGAUGCCUCCAAA	< 1e-05 s⁻¹	–	–	< 1e-05 s⁻¹	–
AUAAAACCGCCAGAACUACAGAAAUGUAGUUGACGAGGAGGAGGUUUAUCGAAUUUUCGGCGGAGGCCUCCAAA	< 1e-05 s⁻¹	–	< 1e-05 s⁻¹	< 1e-05 s⁻¹	< 1e-05 s⁻¹
AUAAAACCGCCAGAACUACAGAAAUGUAGUUGACGAGGAGGAGGUUCAUCGAAUUUUCGGCGGAUGCCUCCAAA	< 1e-05 s⁻¹	< 1e-05 s⁻¹	–	< 1e-05 s⁻¹	< 1e-05 s⁻¹
AUAAAAUCGCCAGAACUACAGAAAUGUAGUUGACGAGGAGGAGGUUUUUCGAAUUUUCGCCGGAUGCCUCCAAA	< 1e-05 s⁻¹	–	–	–	–
AUAAAAUCGCCAGAACUACAGAAAUGUAGUUGACGUGGACGAGGUUUAUCGAAUUUUCGGCGGAUGCCUCCAAA	< 1e-05 s⁻¹	–	< 1e-05 s⁻¹	< 1e-05 s⁻¹	–
AUAAAACCGCCAGAACUACAGAAAUGUAGUGGACGAGGAGGAAGUUUAUCGAAUGUUCGGCGGAUGCUUCCAAA	< 1e-05 s⁻¹	–	–	–	–
AUAAAACCGCCAGAACUACAGAAAUGUAGUCGACGAGGAGGACGUUUAUUGAAUUUUCGGCGGAUGCCUCCAAA	< 1e-05 s⁻¹	< 1e-05 s⁻¹	–	< 1e-05 s⁻¹	< 1e-05 s⁻¹
AUAAAACCGCCAGAACUACAGAAAUGUAGUUGACGAGGAGGAGGUUUAUCGAAUAUUCGGCGGAUGCCUCCAAA	< 1e-05 s⁻¹	< 1e-05 s⁻¹	< 1e-05 s⁻¹	–	< 1e-05 s⁻¹
AUAAAACCGCCAGAACUACAGAAAUGUAGUUGACGAGGAGGAGGUUUAUCGAAUGUUCGGCGGAUGCCUCCAAA	< 1e-05 s⁻¹	–	–	< 1e-05 s⁻¹	–
